Data set [1] deals with Wild-type PCNA (human) (human) (UniProt P12004).
The subject of data set [2] is DNA polymerase eta (pol η) (human). Briefly: fluorescence anisotropy. As to conditions: 10 mM Mg2+; 25 mM TrisOAc pH 7.7, 10 mM Mg(OAc)2, 125 mM KOAc, 0.1 mg/ml BSA, 1 mM DTT, ionic strength adjusted to 200 mM with KOAc, room temperature.
Data set [3] relates to DNA polymerase delta (pol δ), exonuclease-deficient (human). The experiment in a line: fluorescence anisotropy. Particulars: 10 mM Mg2+; estimated from partial binding curve, single measurements; 25 mM TrisOAc pH 7.7, 10 mM Mg(OAc)2, 125 mM KOAc, 0.1 mg/ml BSA, 1 mM DTT, ionic strength adjusted to 200 mM with KOAc, room temperature.
Data set [4] has as its system DNA polymerase delta (pol δ), exonuclease-deficient;Cy5-PCNA (human;human). The experiment in a line: FRET. Particulars: 3'-biotin (Neutravidin bound); 25 mM TrisOAc pH 7.7, 10 mM Mg(OAc)2, 125 mM KOAc, 0.1 mg/ml BSA, 1 mM DTT, ionic strength adjusted to 200 mM with KOAc, room temperature; cited from earlier work.
Data set [5] relates to DNA polymerase eta (pol η);Cy5-PCNA (human;human). Briefly: FRET. Particulars: pol η titrated onto Cy5-PCNA loaded by RFC (100 nM each), 1 mM ATP; 3'-biotin (Neutravidin bound); 25 mM TrisOAc pH 7.7, 10 mM Mg(OAc)2, 125 mM KOAc, 0.1 mg/ml BSA, 1 mM DTT, ionic strength adjusted to 200 mM with KOAc, room temperature.
Data set [6] addresses Cy3-pol η (human DNA polymerase eta, full length, N-terminally labeled with Cy3) (human) (UniProt Q9Y253). The experiment in a line: FRET or BRET; competitive inhibition: pre-assembled Cy3-Pol η•Cy5-PCNA complex (200 nM Cy3-Pol η, 20 nM Cy5-PCNA) titrated with unlabeled competitor (PCNA, (Ub)3-PCNA or pol η, 0-5 μM); dose-response model, Ki from IC50 by the Munson-Rodbard solution; room temperature; replication assay buffer, ionic strength 200 mM.

Some results are limits rather than exact numbers.

Cy3-pol η (human DNA polymerase eta, full length, N-terminally labeled with Cy3) (human), sequence (Q9Y253 whole entry): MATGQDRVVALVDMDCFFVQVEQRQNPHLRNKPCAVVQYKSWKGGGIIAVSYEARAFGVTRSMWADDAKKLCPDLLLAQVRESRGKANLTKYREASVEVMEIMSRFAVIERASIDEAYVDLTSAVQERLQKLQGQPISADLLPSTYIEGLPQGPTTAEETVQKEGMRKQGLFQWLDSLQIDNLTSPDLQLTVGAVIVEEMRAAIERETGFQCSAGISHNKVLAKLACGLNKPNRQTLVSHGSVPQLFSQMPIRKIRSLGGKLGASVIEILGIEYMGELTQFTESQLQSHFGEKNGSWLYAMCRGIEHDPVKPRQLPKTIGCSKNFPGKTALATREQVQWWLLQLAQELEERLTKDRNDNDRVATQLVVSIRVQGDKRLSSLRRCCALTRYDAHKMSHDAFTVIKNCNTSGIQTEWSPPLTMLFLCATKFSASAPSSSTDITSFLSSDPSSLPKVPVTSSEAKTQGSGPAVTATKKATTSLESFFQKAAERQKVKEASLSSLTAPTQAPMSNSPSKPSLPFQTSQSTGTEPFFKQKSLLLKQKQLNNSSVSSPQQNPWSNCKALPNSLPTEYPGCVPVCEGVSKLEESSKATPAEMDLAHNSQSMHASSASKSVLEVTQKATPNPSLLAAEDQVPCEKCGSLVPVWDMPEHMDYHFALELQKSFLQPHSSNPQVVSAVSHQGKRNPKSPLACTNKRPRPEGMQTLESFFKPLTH
Wild-type PCNA (human) (human), sequence (P12004 whole entry): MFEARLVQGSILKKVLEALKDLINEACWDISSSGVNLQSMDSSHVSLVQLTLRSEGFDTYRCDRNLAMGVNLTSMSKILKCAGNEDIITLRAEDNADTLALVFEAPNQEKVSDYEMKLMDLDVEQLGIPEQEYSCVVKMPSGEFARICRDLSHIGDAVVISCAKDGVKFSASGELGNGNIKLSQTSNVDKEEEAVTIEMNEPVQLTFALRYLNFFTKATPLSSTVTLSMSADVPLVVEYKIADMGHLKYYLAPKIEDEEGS

Turning to “Exonuclease-deficient human DNA polymerase delta (D402A in the catalytic POLD1 subunit) (from UniProt P28340 1-1107) (complex)”, the probability of insertion (Pi) of pol δ in single turnover primer extension on TT P/T DNA in the presence of PCNA (plateau i = 15 to i = 25); no DNA synthesis without PCNA in data set [1] was 0.999.
Take FLUOR-P/T DNA: the dissociation constant (Kd) was 29.7 nM in data set [2] and 537 nM in data set [3].
Turning to Forked Cy3-P/T DNA, the results for the Kd in data set [4] and in data set [5] were under 10 nM and 28 nM, respectively.
Substance “Monoubiquitinated PCNA ((Ub)3-PCNA): a single ubiquitin moiety on K164 of each monomer within a homotrimeric clamp ring (from UniProt P12004 1-261; P0CG48 1-76) (complex)” had an inhibition constant Ki in data set [6] of 119 nM.

Broadly, the Kd is the constant that tells how readily two partners part at equilibrium. The term Ki denotes a dissociation constant, usually derived from enzyme kinetics or from competition with a known ligand. Low values mean a stronger hold on the target, high ones a looser hold on the target.

(Values after paper PMC5123862.)
